Data published in paper PMC10283433.

Columns and labels:
[1] = molecular target: anti-FX antibodies with the V1 or V2 mutation pair; test: SPR
[2] = molecular target: NXT007 in the dKiHv14 format (anti-FIXa/FX bispecific humanized IgG4, kappa/lambda) (human); test: SPR

| fold increase in KD against the parent [1] | FcRn binding ability after acid treatment, relative to the initial sample [2] | Substance |
| --- | --- | --- |
| 1.3 to 1.4 times | – | human FX (Enzyme Research Laboratories, HFX 1010) (natural protein) |
| – | 80% | recombinant human FcRn (from UniProt P55899 24-365) (receptor) |
